Here are results for two molecules from US20250354169A1.

The experiment concerns the target human FAM19A5-Fc protein (human) (UniProt Q7Z5A7). In words: binding inhibition, flow cytometry: 0.1 ug FAM19A5-Fc pre-incubated with 200 uL scFv supernatant, added to U87MG cells, detected with anti-human IgG 488; control GFP AAV supernatant.
UniProt Q7Z5A7, sequence (Q7Z5A7 44-132): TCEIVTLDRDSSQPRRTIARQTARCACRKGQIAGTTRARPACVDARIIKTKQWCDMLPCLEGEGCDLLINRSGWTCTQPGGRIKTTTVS

B1: anti-FAM19A5 ("1-65") scFv, secreted by cells transduced with scAAV9-CMV-1-65-ScFv (scFv, part only)
scFv: ALTQPSSVSANPGETVKITCSGGGSSGYGYGWYQQKSPSSAPLTVIYWNDKRPSDIPSRFSGSKSGSTHTLTITGVQAEDEAVYFCGNDDYSSDSGYVGVFGAGTTLTVLSGGGGSSGGGGSAVTLDESGGGLQTPGGALSLVCKASGFTFSSYQMGWVRQAPGKGLEWVGVINKSGSDTSYGSAVKGRATISRDNGQSTVRLQLNNLRAEDTGTYFCAKGSASYITAATIDAWGHGTEVIVSS
modifications: C-terminal FLAG tag
With B1, the reduction of the MFI of the binding of human FAM19A5-Fc to U87MG cells was found to be 19%.

B2: anti-FAM19A5 ("2-13") scFv, secreted by cells transduced with scAAV9-CMV-2-13-ScFv (scFv, part only)
scFv: ALTQPSSVSANPGETVKITCSGGSYSYGWFQQKSPGSALVTVIYWDDERPSDIPSRFSGALSGSTNTLTITGVQADDEAVYFCGTEDISGTAGVFGAGTTLTVLSGGGGSSGGGGSAVTLDESGGGLQTPGGALSLVCKASGFTFSSHGMFWVRQTPGKGLEYVAEITNDGSGTNYGSAVKGRATISRDNGQSTVRLQLNNLRAEDTGTYFCARSTYECPGGFSCWGDTGQIDAWGHGTEVIVSS
modifications: C-terminal FLAG tag
The molecule B2 yielded a reduction of the MFI of the binding of human FAM19A5-Fc to U87MG cells of 68%.
